According to the RNAGym collection of RNA variant scans (doi:10.1073/pnas.2313332121):

B1: TPR t1 (parent)
chain: GACCAAUCUGCCCUCAGAGCUCGAGAACAUCUUCGGAUGCAGAGGAGGCAGGCUUCGGUGGCGCGAUAGCGCCAACGUCCUCAACCUCCAAUGCAUCCCACCACAUGAUGAUGCCUGAAGAGCCUUGGUUUUUUG

Variants of: B1
Assay: polymerase ribozyme fitness, log enrichment relative to wild type (log ratio); higher = more active; in vitro selection for triplet polymerase activity
In short: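 In triplicate, a single round of in vitro selection was run on each mutant library, PCR-built and transcribed, covering one subunit of a heterodimeric triplet polymerase ribozyme. Frozen incubation at −7 °C followed annealing with a biotinylated primer, partner subunit and triplets, and extended constructs were then gel-excised, streptavidin-captured and taken through RT-PCR. Fitness is the logarithm of genotype enrichment over wild-type enrichment, from inverse-variance-weighted replicate averages of Illumina-sequenced inputs and outputs. […] only genotypes with ≥10 input reads and ≥1 read per output were kept.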

Variant	polymerase ribozyme fitness (log ratio)
C4G U9C A43G G47A C73A	-2.93
G45C C56A	-1.46
G71C C94U	-3.04
G48A C85G C115U	-2.75
C11G C15A U59A C73A U125A	-1.02
G45C C72U C85G	-3.66
C64U A90U A100U	-3.1
C11U C123A	0.93
C4A U78A C124G	1.08
A5U C20A U33A A37G C49G G52A U78A A111U	-5.53
A6G G69U C115A G120A	0.502
G69U A83U A95U U106A	0.29
A74G C79A C82A U112A	-2.42
G10A G17C C56U	-2.35
A2C A18U C124A	-3.22
G71U C123A	1.94
A6G C72G C88U C123A	0.738
C40U C53A C73A C104U C123G	1.24
U21A C56U G57C	-0.599
G61A G93C C97A C104A	-6.04
U81A U131G	-0.926
C11U G61C G120U G122U	-1.06
U55G G57A	-0.536
C53G C72A U81A G120C C123G	-1.65

Variant	polymerase ribozyme fitness (log ratio)
G63C C82G A121C G128C	-1.24
A24U C123U	-4.2
A103U A118G	-5.56
G57A C94G G113A	-3.76
A16G G51C	-5.21
C8A C13U U55G G93A	-0.498
U9C G48U C123U	1.12
A50G C101U	-0.187
U14C C104U	-0.978
C4U C8A C53U G69U U96G G128C	-1.46
G60A C97A	-4.41
C53A C89U U126C	-1.37
C80A U112G	-4.16
G39A C56A G71C C124A	-5.6
G52U C53U C56U G93U U109G	-6.55
A27G U38A C73U A83C	-3.53
C72G U81A	-2.98
C53U U55G C104U	0.237
A27C A29U C56G	-4.23
G51U C104A U133G	-5.02
C72G C88G U96G	-2.68
C11G C13A	-2.58
C8U G10A A95C U130G	-1.3
G44A A66G U133G	-2.29

Variant	polymerase ribozyme fitness (log ratio)
U78C G113U	-3.31
A83U U96A	-0.525
G10U A84G G120A U125G	0.926
U59C C72G A118C	-3.55
A5U C72G U106C	-0.417
C53G A74G G117A	-1.73
C31G G36U C49U U112G	-6.99
U106C U132A	-0.182
C15U U21C G110A U130G	-4.32
U7C C8U A46U C56G G128U	-3.61
C40G G63U	-1.85
C40G G63A	-1.91
G42U C73A U125A	-1.74
C34G A91G C114A U132A	-6.48
G19C C28U C34A C53G C64A C114U U126C	-6.21
G69A U78A	-2.94
C8A G47C G48A G58A G60U	-1.54
U7A G39C U55C	-1.1
G39A C53G G57C	0.135
G10A A18U C70G G77A U87A C115A	-7.14
G61C G113A	-2.26
G51A G69U C88U G93A U109G U133C	-4.55
G52C C72U C73G	-1.01
C76U A121C	2.01

Variant	polymerase ribozyme fitness (log ratio)
C20A A37U G61A A121C G122A	-1.31
A46U U54G C82A G110U	-3.02
C64G U78G G120A A121G C123A U131C	-4.99
G44U G45C	-2.69
G44A C72A G110A G122A C124A	-3.56
U33A G69A C79A A121G	-6.8
G19U C53G U54A C124A G128A	-3.23
A2C U96A	-3.03
C8A A50C U92C	-1.6
C12G C72G	0.202
C12G A75U	0.372
G42U G69C C123A	-3.23
G71C C82G U109A C115A A118U C123A	-6.35
C12G G47A G113A C124U U129G U133A	-4.6
C62U C94A	-1.69
A43C G52A	-2.92
A18U G71A G93U U131G	-5.74
A74G U87A G117C G120A A121U U129A	-6.07
C73U U92G	-2.88
A41U G69C U78C A100U	-6.25
A6G A24G C73A	-1.35
G71A C99U C115A U129C G135U	-5.53
G52U C72U A121C	0.242
C97U U116C	-0.713

Variant	polymerase ribozyme fitness (log ratio)
G71A A83C G93C A118G	-2.9
G110A C115G	-5.71
C64U C79A G110A	-3.21
C62A U129G	-1.28
C12A C13A	-1.97
C12U A74G U87A	-0.554
G61A U81G A84G A91G A111G	-4.48
G48U G57C	-0.412
C22U C89A	-4.83
C56G G113C U133G	-2.55
U9A C13A	0.483
A41U C53U G117C U131A	-5.46
U9G C15U A90G C124A	1.55
C49U A50C G69A G135U	-3.24
C64U C114G	-2.3
A27U G44U	-3.87
C34U A105G G120A	-5.77
C56G G117C	-2.91
G48A C64U A95U G110C C115A	-5.72
G10C C73G C80U	-3.34
C22G U96G C104G	-5.47
G42A A91G	-2.47
C56U G60A A68C C70U	-6.82
G36A A43G A105U U112C	-5.32

Variant	polymerase ribozyme fitness (log ratio)
G63C A111C A121C	-0.162
C11A G17A	-6.16
C104U C115U	-0.334
G60C U78A G110A A111U C124A U133A	-2.76
A111G U116G C124A U131G	-1.23
C8G G19U G48A A50U U54G C72U U92A U112A	-4.04
C8G A18U C22G G117U	-2.97
C11G A29C C49A G117A G120A	-3.48
G48U C102A A111G	-1.65
C73A U92A	-2.45
A5C G10A C34A G63U	-4.64
G69C C104A	-1.87
C3U C79U C94U G110U	-1.77
A6C A121U	1.95
G71A C79A C85U	-2.89
C31G G42U G113U	-5.66
C101A A121U	-0.684
U7C C101G	-1.98
C62G A95G	-1.49
C76A A105U C124A	-1.25
U106C G113U	-3.01
A43G U133G	-1.7
C104U A105C U131C	-2.36
A66C C72U C80U U126G G128A	-4.37

Variant	polymerase ribozyme fitness (log ratio)
G48A A75U C79G A90U A95C G120A U129G	-6.14
A46C U87C C89G U92C	-2.75
G45U U54C U132C	-1.01
G48U C62U G71C U96A	-2.08
C72G G113C U129A	-4.04
C13G A29U C34A G61U A111U U133C	-1.41
U9G C98U	-0.308
C11A A50G U81A	-2.23
U38G A84U	-1.9
G69C C114A	-2.28
A43C C115G	-3.94
C34G G63U C70U	-6.08
U9A G110A A111U C115U	-6.7
G48C G63A	-0.954
A37U C53G C89U C102U U131A	-2.62
C49U G57U G110C	-4.9
G61A G93A	-0.586
C40G G61C	-2.49
C13U A18C A37C G39U G57A	-6.61
A50U C85G C89A G120U	-3.42
U59G C72U U106G U112A G128C	-4.15
A37U A41G	-0.165
C31A U112C	-3.86
